{"source": "paper PMC11507936", "target": "non-structural protein 3 (Nsp3) ubiquitin-like domain 1 (Ubl1), 1-111", "data": [{"substance": "Nucleocapsid protein (N) (from UniProt P0DTC9)", "values": [{"measurement": "other: partition coefficient", "value": "weaker; reference 12.6 ± 0.1"}]}]}
